According to paper PMC4521584, “MutS/MutL crystal structure reveals that the MutS sliding clamp loads MutL onto DNA” (eLife, 2015):

Target: T1, WT MutS, full length (E. coli, UniProt P23909 1-853)
T1 construct: MutS, E. coli, wild type; also called MutS sliding clamp; source: mutS gene in vector pET-3D; purified as described previously
T1 sequence (looked up): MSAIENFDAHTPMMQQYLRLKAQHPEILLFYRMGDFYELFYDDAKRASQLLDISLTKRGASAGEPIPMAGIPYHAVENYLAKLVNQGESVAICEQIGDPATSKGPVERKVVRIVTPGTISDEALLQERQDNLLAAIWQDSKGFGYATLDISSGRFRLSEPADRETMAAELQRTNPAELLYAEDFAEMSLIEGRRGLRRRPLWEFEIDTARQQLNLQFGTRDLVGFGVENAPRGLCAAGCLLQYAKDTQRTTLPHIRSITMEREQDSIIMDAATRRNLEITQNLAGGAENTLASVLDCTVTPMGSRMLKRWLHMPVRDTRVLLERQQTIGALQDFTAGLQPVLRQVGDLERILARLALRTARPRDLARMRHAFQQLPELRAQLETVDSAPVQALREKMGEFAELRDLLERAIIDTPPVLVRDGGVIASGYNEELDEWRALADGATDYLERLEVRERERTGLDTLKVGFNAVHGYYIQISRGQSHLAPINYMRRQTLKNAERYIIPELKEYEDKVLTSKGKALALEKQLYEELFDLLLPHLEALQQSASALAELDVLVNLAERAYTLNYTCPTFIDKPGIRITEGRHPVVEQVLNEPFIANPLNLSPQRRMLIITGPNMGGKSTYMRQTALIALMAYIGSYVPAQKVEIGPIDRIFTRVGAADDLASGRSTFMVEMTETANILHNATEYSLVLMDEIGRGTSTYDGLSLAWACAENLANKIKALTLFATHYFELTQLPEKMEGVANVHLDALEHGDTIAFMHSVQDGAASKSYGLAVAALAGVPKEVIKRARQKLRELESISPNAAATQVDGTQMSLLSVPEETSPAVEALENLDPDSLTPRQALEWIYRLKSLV
Test: SPR; two-step: 200 nM MutS with 1 mM ATP trapped as sliding clamps on immobilised, end-blocked 100-bp G:T DNA, then MutL (varying concentrations, 1 mM ATP) injected 120 s; MutS-only signal subtracted; 25 mM Hepes pH 7.5, 150 mM KCl, 5 mM MgCl2, 1 mM DTT, 0.05% TWEEN-20, 20% glycerol; not strictly affinity curves
Details: both partners purified

B1: WT His6-MutL, full length (natural protein, E. coli, UniProt P23367 1-615, looked up)
chain: MPIQVLPPQLANQIAAGEVVERPASVVKELVENSLDAGATRIDIDIERGGAKLIRIRDNGCGIKKDELALALARHATSKIASLDDLEAIISLGFRGEALASISSVSRLTLTSRTAEQQEAWQAYAEGRDMNVTVKPAAHPVGTTLEVLDLFYNTPARRKFLRTEKTEFNHIDEIIRRIALARFDVTINLSHNGKIVRQYRAVPEGGQKERRLGAICGTAFLEQALAIEWQHGDLTLRGWVADPNHTTPALAEIQYCYVNGRMMRDRLINHAIRQACEDKLGADQQPAFVLYLEIDPHQVDVNVHPAKHEVRFHQSRLVHDFIYQGVLSVLQQQLETPLPLDDEPQPAPRSIPENRVAAGRNHFAEPAAREPVAPRYTPAPASGSRPAAPWPNAQPGYQKQQGEVYRQLLQTPAPMQKLKAPEPQEPALAANSQSFGRVLTIVHSDCALLERDGNISLLSLPVAERWLRQAQLTPGEAPVCAQPLLIPLRLKVSAEEKSALEKAQSALAELGIDFQSDAQHVTIRAVPLPLRQQNLQILIPELIGYLAKQSVFEPGNIAQWIARNLMSEHAQWSMAQAITLLADVERLCPQLVKTPPGGLLQSVDLHPAIKALKDE
notes: MutL, E. coli, wild type; also called WT MutL; WT His-MutL; source: mutL gene in plasmid pTX418; purified as described previously
binding result: binds
